Publication doi:10.1101/524447 (bioRxiv, 2019)
Non-standard residues stand in square brackets, D forms with d. No end group written: not given here. pY = N[C@@H](Cc1ccc(OP(=O)(O)O)cc1)C(=O)O

Key:
[1] = molecular target: T1, Syk tandem SH2 (tSH2) fragment, amino acids 9-264 (UniProt P43405 9-264); assay: SPR
[2] = molecular target: T1, Syk tandem SH2 (tSH2) fragment, amino …; assay: thermal shift assay

- IC50 [1]: 15 µM
- Kd [2]: 4.2 ± 0.68 µM
Binder: NPD[pY]EPIRKGQRDL[pY]SGLNQR [pITAM peptide from CD3ε chain, doubly phosphorylated]
